This is an account of results in ChEMBL document CHEMBL1150988, “-lactam-recognizing enzymes exhibit different structural specificity in acyclic amide and ester substrates: a starting point in -lactamase evolution?” (Bioorg Med Chem Lett, 1994).

Common to all, as to conditions: enterococcus cloacae
Substrate in data set [1]: CC(=O)NCCCC[C@H](NC(C)=O)C(=O)NCC(=O)O[C@H](C)C(=O)O
Put plainly: (§1) Km against P99 beta-lactamase.

Substrate in data set [2]: CC(=O)NCCCC[C@H](NC(C)=O)C(=O)NCC(=O)S[C@H](C)C(=O)O
Described as §1.

Substrate in data set [3]: CC(=O)NCCCC[C@H](NC(C)=O)C(=O)N[C@@H](C)C(=O)O[C@H](C)C(=O)O
The data set is described as §1.

Substrate in data set [4]: C[C@@H](OC(=O)CNC(=O)Cc1ccccc1)C(=O)O
The data set is described as §1.

Substrate in data set [5]: C[C@@H](SC(=O)CNC(=O)Cc1ccccc1)C(=O)O
Described as §1.

Substrate in data set [6]: C[C@H](NC(=O)Cc1ccccc1)C(=O)O[C@H](C)C(=O)O
The description is as §1.

B1: Beta-lactamase (Enterobacter cloacae), P05364 (protein)
chain: MMRKSLCCALLLGISCSALATPVSEKQLAEVVANTITPLMKAQSVPGMAVAVIYQGKPHYYTFGKADIAANKPVTPQTLFELGSISKTFTGVLGGDAIARGEISLDDAVTRYWPQLTGKQWQGIRMLDLATYTAGGLPLQVPDEVTDNASLLRFYQNWQPQWKPGTTRLYANASIGLFGALAVKPSGMPYEQAMTTRVLKPLKLDHTWINVPKAEEAHYAWGYRDGKAVRVSPGMLDAQAYGVKTNVQDMANWVMANMAPENVADASLKQGIALAQSRYWRIGSMYQGLGWEMLNWPVEANTVVEGSDSKVALAPLPVAEVNPPAPPVKASWVHKTGSTGGFGSYVAFIPEKQIGIVMLANTSYPNPARVEAAYHILEALQ
On to B1, for which the Km in data set [1] stood at 36.1 mM; in data set [2] it was 6.7 mM; in data set [3], 26.9 mM; in data set [4] it was 8.1 mM; in data set [5], 3.3 mM; in data set [6], 23.4 mM.
